The text below walks through data of patent US20240117334A1, “FACTOR B PROTEASES” (Vertex Pharmaceuticals Incorporated, priority 2021, published 2024).

First the molecules themselves.
B1: chymase C22S/K40M/F41V/K192R/A226R (enzyme)
chain: IIGGTESKPHSRPYMAYLEIVTSNGPSMVCGGFLIRRNFVLTAAHCAGRSITVTLGAHNITEEEDTWQKLEVIKQFRHPKYNTSTLHHDIMLLKLKEKASLTLAVGTLPFPSQFNFVPPGRMCRVAGWGRTGVLKPGSDTLQEVKLRLMDPQACSHFRDFDHNLQLCVGNPRKTKSAFRGDSGGPLLCAGVAQGIVSYGRSDAKPPRVFTRISHYRPWINQILQAN
B2: chymase C22S/P38Q/H100P/L116R/F123L/Q180H/A226R/R235S (enzyme)
chain: B1 chain with P26Q, M28K, V29F, H87P, L103R, F110L, Q165H, R179K, R216S
B3: chymase C22S/F41V/L99H/G151R/F173S/Y215K/A226R (enzyme)
chain: B1 chain with M28K, L86H, G137R, F157S, R179K, Y198K
B4: chymase C22S/K93Q/G119D/F173S/K192R/A226R (enzyme)
chain: B1 chain with M28K, V29F, K80Q, G106D, F157S
B5: chymase C22S/F41R/L99H/F173Y/Y215K/A226R (enzyme)
chain: B1 chain with M28K, V29R, L86H, F157Y, R179K, Y198K
B6: chymase C22S/F173L/Y215H/A226R (enzyme)
chain: B1 chain with M28K, V29F, F157L, R179K, Y198H
B7: chymase C22S/K40M/F41V/G151R/K192R/A226R (enzyme)
chain: B1 chain with G137R
B8: chymase C22S/F41G/L99H/G151T/F173Y/Y215K/A226R (enzyme)
chain: B1 chain with M28K, V29G, L86H, G137T, F157Y, R179K, Y198K
B9: chymase C22S/F41V/L99H/G151T/F173Y/Y215K/A226R (enzyme)
chain: B1 chain with M28K, L86H, G137T, F157Y, R179K, Y198K
B10: chymase C22S/F41R/L99H/G151A/F173S/Y215K/R217T/A226R (enzyme)
chain: B1 chain with M28K, V29R, L86H, G137A, F157S, R179K, Y198K, R200T
B11: chymase C22S/L99R/F173Y/S218L/A226R (enzyme)
chain: B1 chain with M28K, V29F, L86R, F157Y, R179K, S201L
B12: chymase C22S/L99W/F173K/R217S/S218R/A226R (enzyme)
chain: B1 chain with M28K, V29F, L86W, F157K, R179K, R200S, S201R
B13: chymase C22S/F41V/L99H/F173Y/Y215K/A226R (enzyme)
chain: B1 chain with M28K, L86H, F157Y, R179K, Y198K
B14: chymase C22S/F41I/L99H/G151K/F173Y/Y215K/R217G/A226R (enzyme)
chain: B1 chain with M28K, V29I, L86H, G137K, F157Y, R179K, Y198K, R200G
B15: chymase C22S/L99F/F173K/K192R/R217S/S218I/A226R (enzyme)
chain: B1 chain with M28K, V29F, L86F, F157K, R200S, S201I
B16: chymase C22S/F41L/L99H/F173L/Y215K/A226R (enzyme)
chain: B1 chain with M28K, V29L, L86H, F157L, R179K, Y198K
B17: chymase C22S/L99W/F173K/K192R/R217S/S218V/A226R (enzyme)
chain: B1 chain with M28K, V29F, L86W, F157K, R200S, S201V
B18: chymase C22S/F41G/L99H/F173Y/Y215K/A226R (enzyme)
chain: B1 chain with M28K, V29G, L86H, F157Y, R179K, Y198K
B19: chymase C22S/F41R/L99H/G151T/F173L/Y215K/A226R (enzyme)
chain: B1 chain with M28K, V29R, L86H, G137T, F157L, R179K, Y198K
B20: chymase C22S/K40L/F41V/G151R/K192R/A226R (enzyme)
chain: B1 chain with M28L, G137R
B21: chymase C22S/F41V/L99H/F173L/Y215K/A226R (enzyme)
chain: B1 chain with M28K, L86H, F157L, R179K, Y198K
B22: chymase C22S/F41G/L99H/F173L/Y215K/A226R (enzyme)
chain: B1 chain with M28K, V29G, L86H, F157L, R179K, Y198K
B23: chymase C22S/F41R/L99H/G151T/F173Y/Y215K/A226R (enzyme)
chain: B1 chain with M28K, V29R, L86H, G137T, F157Y, R179K, Y198K
B24: chymase C22S/F41L/L99H/G151T/F173L/Y215K/A226R (enzyme)
chain: B1 chain with M28K, V29L, L86H, G137T, F157L, R179K, Y198K
B25: chymase C22S/M135T/P150S/S152G/Q166H/D175N/A190T/A226R (enzyme)
chain: B1 chain with M28K, V29F, M122T, P136S, S138G, Q152H, D159N, A177T, R179K
B26: chymase C22S/L99R/F173Y/K192R/A226R (enzyme)
chain: B1 chain with M28K, V29F, L86R, F157Y
B27: chymase C22S/F41L/L99H/G151T/F173Y/Y215K/A226R (enzyme)
chain: B1 chain with M28K, V29L, L86H, G137T, F157Y, R179K, Y198K
B28: chymase C22S/L99R/K192R/S218L/A226R (enzyme)
chain: B1 chain with M28K, V29F, L86R, S201L
B29: chymase C22S/F41L/L99H/F173Y/Y215K/A226R (enzyme)
chain: B1 chain with M28K, V29L, L86H, F157Y, R179K, Y198K
B30: chymase C22S/K111E/F173L/Y215H/A226R (enzyme)
chain: B1 chain with M28K, V29F, K98E, F157L, R179K, Y198H
B31: chymase C22S/F41K/L99H/G151A/F173Y/Y215K/R217S/A226R (enzyme)
chain: B1 chain with M28K, V29K, L86H, G137A, F157Y, R179K, Y198K, R200S
B32: chymase C22S/F41V/L99H/G151T/F173L/Y215K/A226R (enzyme)
chain: B1 chain with M28K, L86H, G137T, F157L, R179K, Y198K
B33: chymase C22S/V138I/L160V/S189T/A226R (enzyme)
chain: B1 chain with M28K, V29F, V125I, L146V, S176T, R179K
B34: chymase C22S/F41R/L99H/F173L/Y215K/A226R (enzyme)
chain: B1 chain with M28K, V29R, L86H, F157L, R179K, Y198K
B35: chymase C22S/F41G/L99H/G151T/F173L/Y215K/A226R (enzyme)
chain: B1 chain with M28K, V29G, L86H, G137T, F157L, R179K, Y198K
B36: chymase C22S/L99H/F173Y/K192R/Y215K/R217S/S218V/A226R (enzyme)
chain: B1 chain with M28K, V29F, L86H, F157Y, Y198K, R200S, S201V
B37: chymase E21G/C22S/R61H/M135T/F173Y/D175N/A209V/A226R (enzyme)
chain: B1 chain with E6G, M28K, V29F, R49H, M122T, F157Y, D159N, R179K, A192V

Positions count from the first letter of the chain named. Numbers in names are those of the source.

Human Factor B (human), sequence (P00751 26-764 limits assumed): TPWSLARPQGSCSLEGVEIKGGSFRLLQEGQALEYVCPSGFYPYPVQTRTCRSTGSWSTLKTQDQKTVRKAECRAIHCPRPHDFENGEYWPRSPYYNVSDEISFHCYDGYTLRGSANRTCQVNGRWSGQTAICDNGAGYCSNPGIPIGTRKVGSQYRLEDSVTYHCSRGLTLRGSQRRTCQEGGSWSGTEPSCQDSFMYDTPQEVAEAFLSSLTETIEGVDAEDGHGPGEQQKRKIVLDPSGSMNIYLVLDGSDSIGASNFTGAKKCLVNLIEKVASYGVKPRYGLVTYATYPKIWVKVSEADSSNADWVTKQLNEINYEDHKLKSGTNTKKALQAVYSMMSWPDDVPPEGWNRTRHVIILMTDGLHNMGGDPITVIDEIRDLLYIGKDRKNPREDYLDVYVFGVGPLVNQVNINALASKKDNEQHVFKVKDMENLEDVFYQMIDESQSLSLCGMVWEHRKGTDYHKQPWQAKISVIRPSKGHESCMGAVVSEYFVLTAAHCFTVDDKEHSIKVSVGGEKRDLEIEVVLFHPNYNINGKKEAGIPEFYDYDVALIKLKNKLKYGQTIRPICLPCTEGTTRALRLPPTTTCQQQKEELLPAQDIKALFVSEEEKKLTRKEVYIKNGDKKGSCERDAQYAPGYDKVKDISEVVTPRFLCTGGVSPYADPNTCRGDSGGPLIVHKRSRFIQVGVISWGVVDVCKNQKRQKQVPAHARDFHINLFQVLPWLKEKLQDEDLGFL

The test has as its target Human Factor B (human) (UniProt P00751). As to the kind of experiment: cell-based or functional assay.
Molecule B1 returned a fB Cleavage EC50 of 7.77 µM. As to B2, the fB Cleavage EC50 came to 3.74 µM. On the same count and under the same terms, to B3 belongs 4.78 µM.

For the molecule B4, the fB Cleavage EC50 is 7.77 µM. The molecule B5 returned a fB Cleavage EC50 of 4.8 µM. B6 came in with a fB Cleavage EC50 of 5.99 µM. In turn, B7 gave a fB Cleavage EC50 of 7.77 µM.

Turning to B8, the fB Cleavage EC50 turned out to be 6.6 µM. On to B9, for which the fB Cleavage EC50 was determined as 5.33 µM.

Regarding B10, the fB Cleavage EC50 is 2.25 µM; the fB Cleavage, 64% A2M-depl plasma EC50 came out at 2.88 µM; the fB Cleavage, 64% plasma EC50 was found to be 3.4 µM. The molecule B11 gave a fB Cleavage EC50 of 0.546 µM. As for B12, the fB Cleavage EC50 was determined as 2.66 µM. For B13, the fB Cleavage EC50 is 6.06 µM. For B14, the fB Cleavage EC50 turned out to be 7.77 µM. Same read-out and setting: to B15 belongs 4 µM; to B16, 7.89 µM.

As for B17, the fB Cleavage EC50 turned out to be 2.49 µM. The molecule B18 returned a fB Cleavage EC50 of 6.65 µM.

Molecule B19 displayed a fB Cleavage EC50 of 4.8 µM.

In the case of B20, the fB Cleavage EC50 stood at 7.5 µM. For the molecule B21, the fB Cleavage EC50 amounted to 8.73 µM. As for B22, the fB Cleavage EC50 is 10.2 µM. B23 gave a fB Cleavage EC50 of 3.22 µM. B24 gave a fB Cleavage EC50 of 4.17 µM. With B25, the fB Cleavage EC50 came to 3.16 µM. As to B26, the fB Cleavage EC50 is 3.28 µM. Consider B27, for which the fB Cleavage EC50 stood at 3.23 µM. B28 registered a fB Cleavage EC50 of 7.51 µM. Still for that read-out and setting: to B29 belongs 3.45 µM; to B30, 9.01 µM. B31 came in with a fB Cleavage EC50 of 1.31 µM; a fB Cleavage, 64% A2M-depl plasma EC50 of 5.75 µM; a fB Cleavage, 64% plasma EC50 of 5.69 µM; a fB Cleavage, 80% plasma EC50 of 18.6 µM. Regarding B32, the fB Cleavage EC50 came to 5.42 µM. Take B33: the fB Cleavage EC50 worked out at 7.13 µM. The molecule B34 registered a fB Cleavage EC50 of 6.64 µM. In turn, B35 yielded a fB Cleavage EC50 of 11.5 µM.

On to B36, for which the fB Cleavage EC50 is 3.46 µM.

On to B37, for which the fB Cleavage EC50 came out at 1.26 µM.
